Reference: patent publication CN109485724A (FUZHOU MAIXIN BIOTECHNOLOGY DEV CO LTD, dated 2019)

Molecular target: T1, 重组Desmin蛋白 (人Desmin α螺旋杆状区第109位至第412位氨基酸片段 + 组氨酸标签, 大肠杆菌表达) (human, UniProt P17661 109-412)
T1 construct: range 109-412; Expressed in E. coli Rosetta from pET-28a(+) (EcoRI/HindIII), solubilised from inclusion bodies in 8 M urea and purified on Ni-NTA; also called 重组Desmin蛋白片段; 免疫原; not shown: histidine tag from vector pET28a(+)
Assay: indirect ELISA on coated recombinant Desmin; affinity constant calculated from the antibody concentration at half of the plateau OD450

T1 sequence (P17661 109-412): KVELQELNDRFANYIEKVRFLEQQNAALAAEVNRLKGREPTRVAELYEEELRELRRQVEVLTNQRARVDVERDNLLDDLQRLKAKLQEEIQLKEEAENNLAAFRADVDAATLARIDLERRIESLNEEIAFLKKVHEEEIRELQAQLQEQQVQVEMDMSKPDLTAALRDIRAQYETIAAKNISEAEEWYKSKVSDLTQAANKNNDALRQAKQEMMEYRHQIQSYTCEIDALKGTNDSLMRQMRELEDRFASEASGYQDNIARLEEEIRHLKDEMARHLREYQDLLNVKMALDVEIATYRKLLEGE

B1: 抗Desmin蛋白单克隆抗体(14G1C12) (antibody, V domains shown)
VH: QIQLVQSGPELKKPGETVKISCKASGYTFTNYGMNWVKQAPGKGLKWMGWINTNTGEPTYAEEFKGRFAFSLETSASTAYLQINNLKNEDTATYFCAREFSSWGQGTLVTVSA
VL: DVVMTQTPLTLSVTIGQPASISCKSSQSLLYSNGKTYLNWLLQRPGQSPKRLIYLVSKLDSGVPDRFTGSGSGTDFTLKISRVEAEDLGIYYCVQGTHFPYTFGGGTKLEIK
notes: also called Desmin单克隆抗体; 14G1C12的Desmin
- Ka: 6.82e+09 M⁻¹
